Patent publication US20030143644A1

How the values were obtained:
cytoskeleton [1] = assay: cell-based or functional assay
cytoskeleton [2] = assay: immunoblot densitometry of the pellet after anti-αβTCR plus GAM ligation, thymocytes
cytoskeleton [3] = assay: immunoblot densitometry of the detergent insoluble pellet, resting cells
cytoskeleton [4] = assay: immunoblot densitometry of the detergent insoluble pellet, TCR ligated against non-ligated
cytoskeleton [5] = assay: immunoblot densitometry of the pellet after anti-αβTCR plus GAM ligation, lymph node T cells

Chain of TCR-ζ (P24161 22-164 limits assumed): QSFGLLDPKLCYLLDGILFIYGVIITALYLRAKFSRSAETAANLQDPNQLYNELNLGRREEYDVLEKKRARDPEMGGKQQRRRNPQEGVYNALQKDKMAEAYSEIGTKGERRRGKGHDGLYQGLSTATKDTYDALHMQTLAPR

Substance | IL-2 production (fold less IL-2 than wild-type CD8/ζ) (cytoskeleton [1]) | percent of TCR-ζ in the detergent insoluble pellet (activated thymocytes) (cytoskeleton [2]) | percent of TCR-ζ in the detergent insoluble pellet (resting thymocytes and lymph node T cells) (cytoskeleton [3]) | fold increase in the pellet against non-ligated samples (lymph node T cells) (cytoskeleton [4]) | fold increase in the pellet against non-ligated samples (thymocytes) (cytoskeleton [4]) | percent of TCR-ζ in the detergent insoluble pellet (activated lymph node T cells) (cytoskeleton [5])
CD8/ζD67-126 (from UniProt P01731 28-217; P24161 52-164) (receptor) | 40 |  |  |  |  | 
CD8/ζY153E (from UniProt P01731 28-217; P24161 52-164) (receptor) | 100 |  |  |  |  | 
TCR-ζ (from UniProt P24161 22-164) (receptor) |  | 16% | 7% | 6 fold | 2 fold | 43%
